# T1: 重组弓形虫毒力因子ROP18 (Toxoplasma gondii, UniProt Q2PAY2 1-554)
# T1 construct: also called 弓形虫棒状体蛋白18; rhoptry protein 18; not shown: vector-derived tag of pET28a (fusion protein purified on Ni-NTA)
# T1 sequence (looked up): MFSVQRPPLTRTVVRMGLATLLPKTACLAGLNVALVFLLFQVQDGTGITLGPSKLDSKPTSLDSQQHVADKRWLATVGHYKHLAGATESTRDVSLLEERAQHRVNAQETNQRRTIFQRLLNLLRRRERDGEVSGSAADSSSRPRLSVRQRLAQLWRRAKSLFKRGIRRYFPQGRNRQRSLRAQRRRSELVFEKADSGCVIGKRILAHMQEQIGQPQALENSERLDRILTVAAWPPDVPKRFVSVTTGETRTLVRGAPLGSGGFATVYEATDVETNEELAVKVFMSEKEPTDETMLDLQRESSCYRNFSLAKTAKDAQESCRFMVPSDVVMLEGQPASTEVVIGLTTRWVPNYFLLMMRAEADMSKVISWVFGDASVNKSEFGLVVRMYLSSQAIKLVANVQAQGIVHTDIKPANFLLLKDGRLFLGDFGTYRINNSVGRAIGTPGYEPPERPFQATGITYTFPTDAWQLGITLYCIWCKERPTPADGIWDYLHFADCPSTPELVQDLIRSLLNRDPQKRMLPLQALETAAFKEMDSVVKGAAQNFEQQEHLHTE
# B1: 弓形虫毒力因子ROP18纳米抗体22号克隆株 (VHH)
# VHH: QVQLVESGGGSVQAGGSLRLSCVASRYTYTYSTYCLGWFRQAPGKEREEIAIIDSDGGARYADSVKGRFTISRDNAKSTLYLHMNSLKPDDTAMYSCAAGRPAPSLGYKCMYNSRHKGTLVTVSS
# notes: also called 毒力因子纳米抗体; pMECS-ROP18-22; not shown: tag from the pMECS vector (purified on a nickel column, detected with anti-His a)
# Biological target: T1, 重组弓形虫毒力因子ROP18
# Experiment: SPR, Biacore T100, 1:1 binding fit
binder,measurement,value
B1,Kd,2.72 nM
